B1: Serine-threonine kinase receptor-associated protein (Homo sapiens), Q9Y3F4 (parent)
chain: MAMRQTPLTCSGHTRPVVDLAFSGITPYGYFLISACKDGKPMLRQGDTGDWIGTFLGHKGAVWGATLNKDATKAATAAADFTAKVWDAVSGDELMTLAHKHIVKTVDFTQDSNYLLTGGQDKLLRIYDLNKPEAEPKEISGHTSGIKKALWCSEDKQILSADDKTVRLWDHATMTEVKSLNFNMSVSSMEYIPEGEILVITYGRSIAFHSAVSLDPIKSFEAPATINSASLHPEKEFLVAGGEDFKLYKYDYNSGEELESYKGHFGPIHCVRFSPDGELYASGSEDGTLRLWQTVVGKTYGLWKCVLPEEDSGELAKPKIGFPETTEEELEEIASENSDCIFPSAPDVKA

What all share (details): with ndka_human NME1, P15531
Sequence of ndka_human NME1, P15531 (P15531 whole entry): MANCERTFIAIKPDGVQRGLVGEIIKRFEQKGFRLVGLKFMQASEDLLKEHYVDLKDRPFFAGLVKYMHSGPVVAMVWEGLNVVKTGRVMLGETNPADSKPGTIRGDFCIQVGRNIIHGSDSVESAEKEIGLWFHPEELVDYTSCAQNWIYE
Test [1] covers variants of B1.
The variants in test [2] derive from B1. The source holds these as a separate data set.
Variants of B1 are the subject of test [3]. This is another data set of the same source.

Regarding C152S, the “effect of a mutation on the interaction” value with ndka_human NME1, P15531 [1] is “decreasing interaction”; in the test with ndka_human NME1, P15531 [2], “disrupting interaction”.
As for C270S, the “effect of a mutation on the interaction” value with ndka_human NME1, P15531 [1] is recorded as “decreasing interaction”; with ndka_human NME1, P15531 [2] it was “disrupting interaction”.
As to C152S;C270S, the “effect of a mutation on the interaction” value with ndka_human NME1, P15531 [1] is “disrupting interaction”; with ndka_human NME1, P15531 [3] it was “decreasing interaction”.

(Values after IntAct's records for PubMed 17314099.)
